Experimental data from the supplement of paper PMC11316812.
± gives the standard deviation of the averaged measurements.

How the values were obtained:
MCF7 = test: percentage of EdU-negative (G0-arrested) nuclei per well, 72 h; higher = more G0 arrest; settings: reference: sequence is the full UniProt precursor, the tested protein was the secreted form or ectodomain
hTERT-HMEC = test: as above; settings: reference: sequence is the full UniProt precursor, the tested protein was the secreted form or ectodomain
[1] = protein concentration 0.0225 µM
[2] = protein concentration 0.01425 µM
[3] = protein concentration 0.1425 µM
[4] = protein concentration 0.0175 µM
[5] = protein concentration 0.00828571 µM
[6] = protein concentration 0.0828571 µM
[7] = protein concentration 0.0072075 µM
[8] = protein concentration 0.072075 µM
[9] = protein concentration 0.03125 µM
[10] = protein concentration 0.3125 µM
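Also: secreted proteins added to cultured cells, EdU pulse at the end, nuclei found by Hoechst imaging, EdU status from nuclear versus surrounding ring intensity ratio, PBS as neutral control.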

Sequence	percentage of EdU-negative (MCF7; [1])	percentage of EdU-negative (MCF7; protein concentration 0.225 µM)	percentage of EdU-negative (hTERT-HMEC; [1])	percentage of EdU-negative (hTERT-HMEC; protein concentration 0.225 µM)	other results
MGSGRRALSAVPAVLLVLTLPGLPVWAQNDTEPIVLEGKCLVVCDSNPATDSKGSSSSPLGISVRAANSKVAFSAVRSTNHEPSEMSNKTRIIYFDQILVNVGNFFTLESVFVAPRKGIYSFSFHVIKVYQSQTIQVNLMLNGKPVISAFAGDKDVTREAATNGVLLYLDKEDKVYLKLEKGNLVGGWQYSTFSGFLVFPL [Q9NTU7]	23.4 ± 2%	25.2 ± 2.2%	5.12 ± 0.27%	4.5 ± 0.36%	
MGLQTTKWPSHGAFFLKSWLIISLGLYSQVSKLLACPSVCRCDRNFVYCNERSLTSVPLGIPEGVTVLYLHNNQINNAGFPAELHNVQSVHTVYLYGNQLDEFPMNLPKNVRVLHLQENNIQTISRAALAQLLKLEELHLDDNSISTVGVEDGAFREAISLKLLFLSKNHLSSVPVGLPVDLQELRVDENRIAVISDMAFQNLTSLERLIVDGNLLTNKGIAEGTFSHLTKLKEFSIVRNSLSHPPPDLPGTHLIRLYLQDNQINHIPLTAFSNLRKLERLDISNNQLRMLTQGVFDNLSNLKQLTARNNPWFCDCSIKWVTEWLKYIPSSLNVRGFMCQGPEQVRGMAVRELNMNLLSCPTTTPGLPLFTPAPSTASPTTQPPTLSIPNPSRSYTPPTPTTSKLPTIPDWDGRERVTPPISERIQLSIHFVNDTSIQVSWLSLFTVMAYKLTWVKMGHSLVGGIVQERIVSGEKQHLSLVNLEPRSTYRICLVPLDAFNYRAVEDTICSEATTHASYLNNGSNTASSHEQTTSHSMGSPFLLAGLIGGAVIFVLVVLLSVFCWHMHKKGRYTSQKWKYNRGRRKDDYCEAGTKKDNSILEMTETSFQIVSLNNDQLLKGDFRLQPIYTPNGGINYTDCHIPNNMRYCNSSVPDLEHCHT					percentage of EdU-negative (MCF7; [2]): 22.9 ± 1.9%; percentage of EdU-negative (MCF7; [3]): 27 ± 0.45%; percentage of EdU-negative (hTERT-HMEC; [2]): 6.49 ± 1.2%; percentage of EdU-negative (hTERT-HMEC; [3]): 7.12 ± 0.37%
MGALRPTLLPPSLPLLLLLMLGMGCWAREVLVPEGPLYRVAGTAVSISCNVTGYEGPAQQNFEWFLYRPEAPDTALGIVSTKDTQFSYAVFKSRVVAGEVQVQRLQGDAVVLKIARLQAQDAGIYECHTPSTDTRYLGSYSGKVELRVLPDVLQVSAAPPGPRGRQAPTSPPRMTVHEGQELALGCLARTSTQKHTHLAVSFGRSVPEAPVGRSTLQEVVGIRSDLAVEAGAPYAERLAAGELRLGKEGTDRYRMVVGGAQAGDAGTYHCTAAEWIQDPDGSWAQIAEKRAVLAHVDVQTLSSQLAVTVGPGERRIGPGEPLELLCNVSGALPPAGRHAAYSVGWEMAPAGAPGPGRLVAQLDTEGVGSLGPGYEGRHIAMEKVASRTYRLRLEAARPGDAGTYRCLAKAYVRGSGTRLREAASARSRPLPVHVREEGVVLEAVAWLAGGTVYRGETASLLCNISVRGGPPGLRLAASWWVERPEDGELSSVPAQLVGGVGQDGVAELGVRPGGGPVSVELVGPRSHRLRLHSLGPEDEGVYHCAPSAWVQHADYSWYQAGSARSGPVTVYPYMHALDTLFVPLLVGTGVALVTGATVLGTITCCFMKRLRKR [Q969P0]	25 ± 1.3%	26.5 ± 0.91%	5.09 ± 0.17%	5.05 ± 0.19%	
MEPFTNDRLQLPRNMIENSMFEEEPDVVDLAKEPCLHPLEPDEVEYEPRGSRLLVRGLGEHEMEEDEEDYESSAKLLGMSFMNRSSGLRNSATGYRQSPDGACSVPSARTMVVCAFVIVVAVSVIMVIYLLPRCTFTKEGCHKKNQSIGLIQPFATNGKLFPWAQIRLPTAVVPLRYELSLHPNLTSMTFRGSVTISVQALQVTWNIILHSTGHNISRVTFMSAVSSQEKQAEILEYAYHGQIAIVAPEALLAGHNYTLKIEYSANISSSYYGFYGFSYTDESNEKKYFAATQFEPLAARSAFPCFDEPAFKATFIIKIIRDEQYTALSNMPKKSSVVLDDGLVQDEFSESVKMSTYLVAFIVGEMKNLSQDVNGTLVSIYAVPEKIGQVHYALETTVKLLEFFQNYFEIQYPLKKLDLVAIPDFEAGAMENWGLLTFREETLLYDSNTSSMADRKLVTKIIAHELAHQWFGNLVTMKWWNDLWLNEGFATFMEYFSLEKIFKELSSYEDFLDARFKTMKKDSLNSSHPISSSVQSSEQIEEMFDSLSYFKGSSLLLMLKTYLSEDVFQHAVVLYLHNHSYASIQSDDLWDSFNEVTNQTLDVKRMMKTWTLQKGFPLVTVQKKGKELFIQQERFFLNMKPEIQPSDTSYLWHIPLSYVTEGRNYSKYQSVSLLDKKSGVINLTEEVLWVKVNINMNGYYIVHYADDDWEALIHQLKINPYVLSDKDRANLINNIFELAGLGKVPLKRAFDLINYLGNENHTAPITEALFQTDLIYNLLEKLGYMDLASRLVTRVFKLLQNQIQQQTWTDEGTPSMRELRSALLEFACTHNLGNCSTTAMKLFDDWMASNGTQSLPTDVMTTVFKVGAKTDKGWSFLLGKYISIGSEAEKNKILEALASSEDVRKLYWLMKSSLNGDNFRTQKLSFIIRTVGRHFPGHLLAWDFVKENWNKLVQKFPLGSYTIQNIVAGSTYLFSTKTHLSEVQAFFENQSEATFRLRCVQEALEVIQLNIQWMEKNLKSLTWWL [Q9UIQ6]	26.9 ± 1.8%	29.26 ± 0.17%	4.48 ± 0.24%	11.1 ± 0.58%	
MLRGISQLPAVATMSWVLLPVLWLIVQTQAIAIKQTPELTLHEIVCPKKLHILHKREIKNNQTEKHGKEERYEPEVQYQMILNGEEIILSLQKTKHLLGPDYTETLYSPRGEEITTKPENMEHCYYKGNILNEKNSVASISTCDGLRGYFTHHHQRYQIKPLKSTDEKEHAVFTSNQEEQDPANHTCGVKSTDGKQGPIRISRSLKSPEKEDFLRAQKYIDLYLVLDNAFYKNYNENLTLIRSFVFDVMNLLNVIYNTIDVQVALVGMEIWSDGDKIKVVPSASTTFDNFLRWHSSNLGKKIHDHAQLLSGISFNNRRVGLAASNSLCSPSSVAVIEAKKKNNVALVGVMSHELGHVLGMPDVPFNTKCPSGSCVMNQYLSSKFPKDFSTSCRAHFERYLLSQKPKCLLQAPIPTNIMTTPVCGNHLLEVGEDCDCGSPKECTNLCCEALTCKLKPGTDCGGDAPNHTTE	25.9 ± 0.54%	27.7 ± 1.7%	4.82 ± 0.43%	12.07 ± 0.12%	
MTRGGPGGRPGLPQPPPLLLLLLLLPLLLVTAEPPKPAGVYYATAYWMPAEKTVQVKNVMDKNGDAYGFYNNSVKTTGWGILEIRAGYGSQTLSNEIIMFVAGFLEGYLTAPHMNDHYTNLYPQLITKPSIMDKVQDFMEKQDKWTRKNIKEYKTDSFWRHTGYVMAQIDGLYVGAKKRAILEGTKPMTLFQIQFLNSVGDLLDLIPSLSPTKNGSLKVFKRWDMGHCSALIKVLPGFENILFAHSSWYTYAAMLRIYKHWDFNVIDKDTSSSRLSFSSYPGFLESLDDFYILSSGLILLQTTNSVFNKTLLKQVIPETLLSWQRVRVANMMADSGKRWADIFSKYNSGTYNNQYMVLDLKKVKLNHSLDKGTLYIVEQIPTYVEYSEQTDVLRKGYWPSYNVPFHEKIYNWSGYPLLVQKLGLDYSYDLAPRAKIFRRDQGKVTDTASMKYIMRYNNYKKDPYSRGDPCNTICCREDLNSPNPSPGGCYDTKVADIYLASQYTSYAISGPTVQGGLPVFRWDRFNKTLHQGMPEVYNFDFITMKPILKLDIK [Q6P4A8]					percentage of EdU-negative (MCF7; [4]): 25.6 ± 2.5%; percentage of EdU-negative (MCF7; protein concentration 0.175 µM): 27.7 ± 0.8%; percentage of EdU-negative (hTERT-HMEC; [4]): 4.42 ± 0.062%; percentage of EdU-negative (hTERT-HMEC; protein concentration 0.175 µM): 19.7 ± 1.7%
MVSALRGAPLIRVHSSPVSSPSVSGPRRLVSCLSSQSSALSQSGGGSTSAAGIEARSRALRRRWCPAGIMLLALVCLLSCLLPSSEAKLYGRCELARVLHDFGLDGYRGYSLADWVCLAYFTSGFNAAALDYEADGSTNNGIFQINSRRWCSNLTPNVPNVCRMYCSDLLNPNLKDTVICAMKITQEPQGLGYWEAWRHHCQGKDLTEWVDGCDF [Q8IXA5]	23.7 ± 1.4%	23.6 ± 2.9%	4.64 ± 0.051%	10 ± 1.4%	
MAPRTLWSCYLCCLLTAAAGAASYPPRGFSLYTGSSGALSPGGPQAQIAPRPASRHRNWCAYVVTRTVSCVLEDGVETYVKYQPCAWGQPQCPQSIMYRRFLRPRYRVAYKTVTDMEWRCCQGYGGDDCAESPAPALGPASSTPRPLARPARPNLSGSSAGSPLSGLGGEGPGESEKVQQLEEQVQSLTKELQGLRGVLQGLSGRLAEDVQRAVETAFNGRQQPADAAARPGVHETLNEIQHQLQLLDTRVSTHDQELGHLNNHHGGSSSSGGSRAPAPASAPPGPSEELLRQLEQRLQESCSVCLAGLDGFRRQQQEDRERLRAMEKLLASVEERQRHLAGLAVGRRPPQECCSPELGRRLAELERRLDVVAGSVTVLSGRRGTELGGAAGQGGHPPGYTSLASRLSRLEDRFNSTLGPSEEQEESWPGAPGGLSHWLPAARGRLEQLGGLLANVSGELGGRLDLLEEQVAGAMQACGQLCSGAPGEQDSQVSEILSALERRVLDSEGQLRLVGSGLHTVEAAGEARQATLEGLQEVVGRLQDRVDAQDETAAEFTLRLNLTAARLGQLEGLLQAHGDEGCGACGGVQEELGRLRDGVERCSCPLLPPRGPGAGPGVGGPSRGPLDGFSVFGGSSGSALQALQGELSEVILSFSSLNDSLNELQTTVEGQGADLADLGATKDRIISEINRLQQEATEHATESEERFRGLEEGQAQAGQCPSLEGRLGRLEGVCERLDTVAGGLQGLREGLSRHVAGLWAGLRETNTTSQMQAALLEKLVGGQAGLGRRLGALNSSLQLLEDRLHQLSLKDLTGPAGEAGPPGPPGLQGPPGPAGPPGSPGKDGQEGPIGPPGPQGEQGVEGAPAAPVPQVAFSAALSLPRSEPGTVPFDRVLLNDGGYYDPETGVFTAPLAGRYLLSAVLTGHRHEKVEAVLSRSNQGVARVDSGGYEPEGLENKPVAESQPSPGTLGVFSLILPLQAGDTVCVDLVMGQLAHSEEPLTIFSGALLYGDPELEHA [A0A0C4DFX3]					percentage of EdU-negative (MCF7; [5]): 26.3 ± 1.3%; percentage of EdU-negative (MCF7; [6]): 30.4 ± 3.6%; percentage of EdU-negative (hTERT-HMEC; [5]): 4.9 ± 0.43%; percentage of EdU-negative (hTERT-HMEC; [6]): 4.36 ± 0.72%
MGKPWLRALQLLLLLGASWARAGAPRCTYTFVLPPQKFTGAVCWSGPASTRATPEAANASELAALRMRVGRHEELLRELQRLAAADGAVAGEVRALRKESRGLSARLGQLRAQLQHEAGPGAGPGADLGAEPAAALALLGERVLNASAEAQRAAARFHQLDVKFRELAQLVTQQSSLIARLERLCPGGAGGQQQVLPPPPLVPVVPVRLVGSTSDTSRMLDPAPEPQRDQTQRQQEPMASPMPAGHPAVPTKPVGPWQDCAEARQAGHEQSGVYELRVGRHVVSVWCEQQLEGGGWTVIQRRQDGSVNFFTTWQHYKAGFGRPDGEYWLGLEPVYQLTSRGDHELLVLLEDWGGRGARAHYDGFSLEPESDHYRLRLGQYHGDAGDSLSWHNDKPFSTVDRDRDSYSGNCALYQRGGWWYHACAHSNLNGVWHHGGHYRSRYQDGVYWAEFRGGAYSLRKAAMLIRPLKL [Q8NI99]					percentage of EdU-negative (MCF7; [7]): 23.9 ± 1.3%; percentage of EdU-negative (MCF7; [8]): 25.7 ± 0.84%; percentage of EdU-negative (hTERT-HMEC; [7]): 4.22 ± 0.45%; percentage of EdU-negative (hTERT-HMEC; [8]): 5.15 ± 0.94%
MEMFQGLLLLLLLSMGGTWASREMLRPRCRPINATLAVEKEGCPVCITVNTTICAGYCPTMTRVLQGVLPALPQVVCNYRDVRFESIRLPGCPRGVNPVVSYAVALSCQCALCRRSTTDCGGPKDHPLTCDDPRFQASSSSKAPPPSLPSPSRLPGPSDTPILPQ					percentage of EdU-negative (MCF7; [9]): 24.4 ± 2.5%; percentage of EdU-negative (MCF7; [10]): 25 ± 1%; percentage of EdU-negative (hTERT-HMEC; [9]): 5.61 ± 0.69%; percentage of EdU-negative (hTERT-HMEC; [10]): 5.26 ± 0.82%
